Assay results: USRE40850E1
“And” between values parts separate entries of the source, which are not always exact repeats. Identical values can stand only once.

Assays:
[1] = target: PTH receptor present on the SaOS-2 (human osteosarcoma cells) (human (SaOS-2 human osteosarcoma cells)) (UniProt Q03431)
[2] = target: PTH receptor present on the SaOS-2 (human osteosarcoma cells) (human (SaOS-2 human osteosarcoma cells)) (UniProt Q03431); assay: displacement of mono-125I-[Nle8,18,Tyr34(3-125I)]bPTH(1-34)NH2 from SaOS-2 cells; Kd defined as half maximal inhibition

Row | EC50 (half maximal stimulation of adenylate cyclase, cAMP synthesis in SaOS-2 cells) [1] | Kd [2] | Substance
1 | 30 nM | 1000 nM | [Cha^24,28,31]hPTH(1-34)NH2 (from UniProt P01270) (peptide)
2 | 10 nM | 150 nM | [Dap^1, Nle^8,18, Tyr^34]hPTH(1-34)NH2 (from UniProt P01270) (peptide)
3 | 0.6 nM | 4 nM | [Aib^16,19]hPTH(1-34)NH2 (from UniProt P01270) (peptide)
4 | 1 nM | 7 nM | [hArg^27]hPTH(1-34)NH2 (from UniProt P01270) (peptide)
5 | 2 nM | 50 nM | [Nle^8,18, Cha^27]hPTH(1-34)NH2 (from UniProt P01270) (peptide)
6 | 20 nM | 200 nM | [Cha^23]hPTH(1-34)NH2 (from UniProt P01270) (peptide)
7 | 2.5 nM | 50 nM | [Cha^28]hPTH(1-34)NH2 (from UniProt P01270) (peptide)
8 | 0.5 nM | 7 nM | [Cha^7,11, Aib^19]hPTH(1-34)NH2 (from UniProt P01270) (peptide)
9 | 1.4 nM | 10 nM | [Cha^7,11,15]hPTH(1-34)NH2 (from UniProt P01270) (peptide)
10 | 0.7 nM | 4 nM | [Nle^31]hPTH(1-34)NH2 (from UniProt P01270) (peptide)
11 | 0.6 nM | 6 nM | [Cha^7,11, Nle^8,18, Tyr^34]hPTH(1-34)NH2 (from UniProt P01270) (peptide)
12 | 2 nM | 4 nM | [Cha^7,11, Aib^19, Lys^30]hPTH(1-34)NH2 (from UniProt P01270) (peptide)
13 | 1.1 nM | 4 nM | [Aib^3]hPTH(1-34)NH2 (from UniProt P01270) (peptide)
14 | 4 nM | 40 nM | [Cha^7,11, Nle^8,18,31, Aib^16,19, Tyr^34]hPTH(1-34)NH2 (from UniProt P01270) (peptide)
15 | 1.5 nM | 30 nM | [Cha^7,11, Nle^8,18,31, Aib^34]hPTH(1-34)NH2 (from UniProt P01270) (peptide)
16 | 7 nM | 60 nM | [Cha^28,31]hPTH(1-34)NH2 (from UniProt P01270) (peptide)
17 | 0.7 nM | 4 nM | [Aib^10]hPTH(1-34)NH2 (from UniProt P01270) (peptide)
18 | 2 nM | 5 nM | [Cha^11]hPTH(1-34)NH2 (from UniProt P01270) (peptide)
19 | 2 nM and 3 nM | 5 nM and 50 nM | [Aib^17]hPTH(1-34)NH2 (from UniProt P01270) (peptide)
20 | 1.3 nM | 5 nM | [Cha^15]hPTH(1-34)NH2 (from UniProt P01270) (peptide)
21 | 2.3 nM | 20 nM | [Cha^7]hPTH(1-34)NH2 (from UniProt P01270) (peptide)
22 | 1.1 nM | 4 nM | [Cha^7,11, Aib^16]hPTH(1-34)NH2 (from UniProt P01270) (peptide)
23 | 7 nM | 500 nM | [Cha^24,28,31, Lys^30]hPTH(1-34)NH2 (from UniProt P01270) (peptide)
24 | 0.6 nM | 5 nM | [Aib^19]hPTH(1-34)NH2 (from UniProt P01270) (peptide)
25 | 3 nM | 7 nM | [Aib^34]hPTH(1-34)NH2 (from UniProt P01270) (peptide)
26 | 4 nM | 30 nM | [Cha^31]hPTH(1-34)NH2 (from UniProt P01270) (peptide)
27 | 1.5 nM | 5 nM | [Cha^7,11, Nle^8,18, Aib^16,19, Tyr^34]hPTH(1-34)NH2 (from UniProt P01270) (peptide)
28 | 0.6 nM | 10 nM | [Cha^7,11]hPTH(1-34)NH2 (from UniProt P01270) (peptide)
29 | 10 nM | 100 nM | [Cha^24]hPTH(1-34)NH2 (from UniProt P01270) (peptide)
